Patent US20180296525A1, “TREATMENT OF AGE-RELATED MACULAR DEGENERATION AND OTHER EYE DISEASES WITH ONE OR MORE THERAPEUTIC AGENTS” (MacRegen, Inc., priority 2017, published 2018)

Columns and labels:
[1] = Tolerability of intravitreal injections, macaque study; assay type: in vivo, Macaca fascicularis; conditions: 6 monthly intravitreal injections, all macaques; no significant adverse event or side effect
Method: (§1) The macaque study was conducted according to accepted guidelines. […] One eye per animal received 6 monthly injections of the same escalating dosages of L-4F or scrambled L-4F (total of 625 μg) in a 50 μL volume. The second eye per animal was not injected and was just observed.
(§2) Clinical laboratory tests including serology, hemograms and liver enzymes were conducted, and ophthalmic examinations were also performed, including fundus photographs, optical coherence tomography (OCT), intraocular pressure testing and blood sampling. After 7 months, all animals were sacrificed and eyes were immediately prepared for histology. Histochemistry was performed with oil red O for neutral lipids and filipin for esterified cholesterol. Immunohistochemistry was performed against complement factor D (CFD) and the membrane attack complex (MAC, C5b-9), both being markers of activation of the alternative complement pathway.
Circulating hsCRP, which is mainly produced in the liver, is a non-specific marker for systemic inflammation.

[2] = system: neutral lipids in and on the Bruch's membrane; test: Oil red O staining of neutral lipids in and on the Bruch's membrane, geriatric macaques with age-related maculopathy; assay type: in vivo, Macaca fascicularis; conditions: injected eyes after 6 monthly intravitreal injections (total 625 μg), compared to eyes injected with placebo
Method: as §1
as §2, with “Immunohistochemistry was performed against complement factor D (CFD) and the membrane attack complex (MAC, C5b-9), both being markers of activation of the alternative complement pathway.” left out
For staining with oil red O (ORO), specimens were treated with a 0.3% oil red O (Sigma-Aldrich Biochemie GmbH, Hamburg, Germany) solution (in 99% isopropanol) for 30 min at room temperature (RT), followed by immersion in a 60% isopropanol solution for 12 min. […] Image analysis was performed by grading the intensity of ORO staining (red color) of the Bruch's membrane (BrM) with scores ranging from 0 to 4, according to a qualitative evaluation assessed in four different regions in two separate slices from each eye (a total of 8 different regions from each eye). […]

[3] = estimated; cited from earlier work
[4] = molecular target: T1, complement factor D (CFD) (Homo sapiens, UniProt P00746); conditions: patients, monthly intravitreal 10 mg in one eye for 18 months, injected eye, compared to placebo; cited from earlier work
T1 construct: host or cells: Endogenous CFD in the eyes of AMD patients
T1 sequence (P00746 26-253): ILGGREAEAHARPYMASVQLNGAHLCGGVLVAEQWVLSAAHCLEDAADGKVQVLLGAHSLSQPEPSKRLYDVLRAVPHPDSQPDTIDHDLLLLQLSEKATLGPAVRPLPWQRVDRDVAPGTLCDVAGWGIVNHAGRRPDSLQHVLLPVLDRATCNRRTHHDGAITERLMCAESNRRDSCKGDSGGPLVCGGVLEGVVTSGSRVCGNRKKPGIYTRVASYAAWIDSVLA

[5] = without encapsulated cell technology; cited from earlier work

Ac-DWFKAFYDKVAEKFKEAF-NH2 [L-4F, Ac-DWFKAFYDKVAEKFKEAF-NH2 acetate salt]
tolerability [1]: well tolerated | reduction of lipid deposits from the BrM (oil red O staining) [2]: about 56%

aflibercept: soluble fusion protein containing extracellular domains of VEGFRs; anti-VEGF agent
intravitreal half-life [3]: about 9.0 days

bevacizumab: anti-VEGF antibody
intravitreal half-life [3]: about 9.8 days

lampalizumab: antigen-binding fragment (Fab) of a humanized monoclonal antibody targeting complement factor D (CFD)
reduction in the rate of GA enlargement, and hence the area of GA [4]: about 20%

ranibizumab: anti-VEGF antibody fragment
intravitreal half-life [3]: about 7.1 days

B1: CNTF: ciliary neurotrophic factor, an endogenous neuroprotector (protein, UniProt P26441 1-200, looked up)
Ciliary neurotrophic factor: MAFTEHSPLTPHRRDLCSRSIWLARKIRSDLTALTESYVKHQGLNKNINLDSADGMPVASTDQWSELTEAERLQENLQAYRTFHVLLARLLEDQQVHFTPTEGDFHQAIHTLLLQVAAFAYQIEELMILLEYKIPRNEADGMPINVGDGGLFEKKLWGLKVLQELSQWTVRSIHDLRFISSHQTGIPARGSHYIANNKKM
half-life of CNTF [5]: 1 to 3 min
